Our source for the expression_or_secretion values is PMC4215116.

A short description of this data set: Ni-NTA pull-down of conditioned medium, anti-myc blot. The following applies: glycan lost; control: wild-type ECM1-MH.

B1: extracellular matrix protein 1 (ECM1): N444Q (protein)
parent chain: MGTTARAALVLTYLAVASAASEGGFTATGQRQLRPEHFQEVGYAAPPSPPLSRSLPMDHPDSSQHGPPFEGQSQVQPPPSQEATPLQQEKLLPAQLPAEKEVGPPLPQEAVPLQKELPSLQHPNEQKEGTPAPFGDQSHPEPESWNAAQHCQQDRSQGGWGHRLDGFPPGRPSPDNLNQICLPNRQHVVYGPWNLPQSSYSHLTRQGETLNFLEIGYSRCCHCRSHTNRLECAKLVWEEAMSRFCEAEFSVKTRPHWCCTRQGEARFSCFQEEAPQPHYQLRACPSHQPDISSGLELPFPPGVPTLDNIKNICHLRRFRSVPRNLPATDPLQRELLALIQLEREFQRCCRQGNNHTCTWKAWEDTLDKYCDREYAVKTHHHLCCRHPPSPTRDECFARRAPYPNYDRDILTIDIGRVTPNLMGHLCGNQRVLTKHKHIPGLIHNMTARCCDLPFPEQACCAEEEKLTFINDLCGPRRNIWRDPALCCYLSPGDEQVNCFNINYLRNVALVSGDTENAKGQGEQGSTGGTNISSTSEPKEE
As for B1, the expression_or_secretion result is given as “no change”.
